This is an account of results in PMC5234850 (Cell reports, 2017).

In assay [1] the target is human Mre11 core (2-411aa), N-terminal his-tagged (human) (UniProt P49959). The experiment in a line: SEC. In general terms: SEC sorts molecules by how far they enter the pores of the column.
Assay [2] deals with T1, human Mre11 core (2-411aa), N-terminal his-tagged (human, UniProt P49959 2-411).
T1 sequence (looked up): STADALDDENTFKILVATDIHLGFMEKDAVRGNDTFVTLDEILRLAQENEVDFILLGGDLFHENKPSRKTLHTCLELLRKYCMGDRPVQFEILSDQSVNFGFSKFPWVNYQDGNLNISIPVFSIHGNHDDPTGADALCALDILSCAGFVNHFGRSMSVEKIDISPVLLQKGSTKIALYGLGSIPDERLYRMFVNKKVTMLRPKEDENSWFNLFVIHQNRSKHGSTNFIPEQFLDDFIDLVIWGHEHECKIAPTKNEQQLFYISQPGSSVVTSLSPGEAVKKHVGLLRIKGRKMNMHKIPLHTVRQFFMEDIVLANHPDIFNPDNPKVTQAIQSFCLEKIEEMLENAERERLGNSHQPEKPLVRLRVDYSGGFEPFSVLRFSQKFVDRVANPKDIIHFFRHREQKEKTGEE
The experiment in a line: SEC.

As usually defined, the stoichiometry N is a count of units in the complex or per binding partner. Consider “human Mre11 core (2-411aa), N-terminal his-tagged (from UniProt P49959 2-411) (domain or fragment)”, for which the stoichiometry N in assay [1] stood at 2.

B1: human Nbs1 F4 (622-729aa) fused to maltose binding protein (domain or fragment, UniProt O60934 622-729, looked up)
chain: KKRELKEDSLWSAKEISNNDKLQDDSEMLPKKLLLTEFRSLVIKNSTSRNPSGINDDYGQLKNFKKFKKVTYPGAGKLPHIIGGSDLIAHHARKNTELEEWLRQEMEV
As for B1, in assay [2], the binding result was “binds”.
